Measurements as given in patent US20050277575.

Target: T1, Glu-plasminogen (Calbiochem), P00747
T1 chain: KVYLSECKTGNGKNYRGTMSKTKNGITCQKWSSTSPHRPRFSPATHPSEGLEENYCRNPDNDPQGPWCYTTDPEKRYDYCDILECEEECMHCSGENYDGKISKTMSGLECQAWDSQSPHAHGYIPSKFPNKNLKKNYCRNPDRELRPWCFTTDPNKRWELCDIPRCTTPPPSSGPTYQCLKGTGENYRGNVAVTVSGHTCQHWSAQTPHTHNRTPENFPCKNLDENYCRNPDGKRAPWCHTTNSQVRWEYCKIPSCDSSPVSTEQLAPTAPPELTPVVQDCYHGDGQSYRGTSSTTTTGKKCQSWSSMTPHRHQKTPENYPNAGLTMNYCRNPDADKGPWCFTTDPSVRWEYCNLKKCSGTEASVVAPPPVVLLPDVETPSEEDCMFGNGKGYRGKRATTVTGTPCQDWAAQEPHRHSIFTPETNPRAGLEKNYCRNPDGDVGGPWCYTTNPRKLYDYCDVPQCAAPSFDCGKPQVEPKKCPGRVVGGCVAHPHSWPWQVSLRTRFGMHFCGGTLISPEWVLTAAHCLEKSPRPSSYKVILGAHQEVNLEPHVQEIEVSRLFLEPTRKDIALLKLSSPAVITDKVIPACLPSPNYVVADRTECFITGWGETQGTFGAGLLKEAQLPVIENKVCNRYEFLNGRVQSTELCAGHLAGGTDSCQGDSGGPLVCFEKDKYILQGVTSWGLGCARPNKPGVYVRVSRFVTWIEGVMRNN

B1: tissue type plasminogen activator (t-PA, Calbiochem) (protein)
chain: SYQVICRDEKTQMIYQQHQSWLRPVLRSNRVEYCWCNSGRAQCHSVPVKSCSEPRCFNGGTCQQALYFSDFVCQCPEGFAGKCCEIDTRATCYEDQGISYRGTWSTAESGAECTNWNSSALAQKPYSGRRPDAIRLGLGNHNYCRNPDRDSKPWCYVFKAGKYSSEFCSTPACSEGNSDCYFGNGSAYRGTHSLTESGASCLPWNSMILIGKVYTAQNPSAQALGLGKHNYCRNPDGDAKPWCHVLKNRRLTWEYCDVPSCSTCGLRQYSQPQFRIKGGLFADIASHPWQAAIFAKHRRSPGERFLCGGILISSCWILSAAHCFQERFPPHHLTVILGRTYRVVPGEEEQKFEVEKYIVHKEFDDDTYDNDIALLQLKSDSSRCAQESSVVRTVCLPPADLQLPDWTECELSGYGKHEALSPFYSERLKEAHVRLYPSSRCTSQHLLNRTVTDNMLCAGDTRSGGPQANLHDACQGDSGGPLVCLNDGRMTLVGIISWGLGCGQKDVPGVYTKVTNYLDWIRDNMRP
In the case of B1, the Km of t-PA-mediated plasminogen conversion in the presence of S100A4 (EGTA) is reported as 0.059 µM and the Km of t-PA-mediated plasminogen conversion, basal reaction (EGTA) is reported as 0.429 µM.
